Experimental data reported in patent US20160051694A1 (AGENSYS, published 2016).

Tests used:
[1] = molecular target: T1, CD37 (Leukocyte Antigen CD37, Tetraspanin-26) on cells (human, UniProt P11049 1-281); test: FACS, BDCM cells (AML); ratio to isotype control
T1 construct: In the assays it is the endogenous CD37 of human cancer cell lines, of AML patient PBMC and of patient tumor sections, or CD37 on recombinant 293T cells; also called CD37 antigen; CD37 expressing cells
T1 sequence: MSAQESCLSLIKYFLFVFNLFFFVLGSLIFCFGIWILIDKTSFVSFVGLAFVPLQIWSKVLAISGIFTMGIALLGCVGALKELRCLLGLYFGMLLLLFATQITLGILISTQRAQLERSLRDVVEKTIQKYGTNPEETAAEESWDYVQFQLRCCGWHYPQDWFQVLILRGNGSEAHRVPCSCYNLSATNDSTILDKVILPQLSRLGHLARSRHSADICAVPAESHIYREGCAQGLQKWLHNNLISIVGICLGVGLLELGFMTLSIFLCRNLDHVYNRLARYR
Method: (§1) HvCD37-6b15.1.1 was tested for binding to different NHL, CLL and AML cell lines (See, Table VI) grown in-vitro. HvCD37-6b15.1.1 and an Isotype matched control antibody were biotinylated using NHS LC biotin. In vitro cancer lines growing exponentially were used for all experiments. Briefly, cells were harvested by and washed by centrifugation. Antibodies were diluted to 5 μg/mL final concentration and co-incubated with cells at 4° C. for 1 hour. At the end of the incubation, cells were washed and incubated with secondary detection Streptavidin-PE antibody at a final 1:400 (1.25 μg/mL) dilution for 1 hr at 4° C. After washing un-bound secondary antibody, cells were analyzed by FACS, a total of 10,000 events were collected per sample. Data files were analyzed using FlowJo and Geometric Mean Fluorescence was determined and reported. Fluorescense ratio was calculated as follows: Geo mean AGS67C/Geo Mean Isotype control=MFR, a measure of fold expression above Isotype control.

[2] = molecular target: T1, CD37 (Leukocyte Antigen CD37, …); test: FACS, Mino cells (MCL); ratio to isotype control
Method: as §1

[3] = molecular target: T1, CD37 (Leukocyte Antigen CD37, …); test: FACS, EoL-1 cells (AML); ratio to isotype control
Method: as §1

[4] = molecular target: T1, CD37 (Leukocyte Antigen CD37, …); test: FACS, HL-60 cells (AML); ratio to isotype control
From the text: (§2) To express HvCD37-6b15.1.1 MAb recombinantly in transfected cells, HvCD37-6b15.1.1 MAb variable heavy and light chain sequences were cloned upstream of the human heavy chain IgG2 and human light chain Igκ constant regions respectively. The complete HvCD37-6b15.1.1 MAb human heavy chain and light chain cassettes were cloned downstream of the CMV promoter/enhancer in a cloning vector. A polyadenylation site was included downstream of the MAb coding sequence. The recombinant HvCD37-6b15.1.1 MAb expressing construct was transfected into CHO cells. The HvCD37-6b15.1.1 MAb secreted from recombinant cells was evaluated for binding to human cancer cell lines expressing CD37 by FACS (See, Table VI). Binding was detected by flow cytometry.
as §1, with “Briefly, cells were harvested by and washed by centrifugation. Antibodies were diluted to 5 μg/mL final concentration and co-incubated with cells at 4° C. for 1 hour. At the end of the incubation, cells were washed and incubated with secondary detection Streptavidin-PE antibody at a final 1:400 (1.25 μg/mL) dilution for 1 hr at 4° C.” left out

[5] = molecular target: T1, CD37 (Leukocyte Antigen CD37, …); test: FACS, JVM-3 cells (CLL); ratio to isotype control
Method: as §1

[6] = molecular target: T1, CD37 (Leukocyte Antigen CD37, …); test: FACS, REC-1 cells (MCL); ratio to isotype control
From the text: as §2
as §1, with “Briefly, cells were harvested by and washed by centrifugation. Antibodies were diluted to 5 μg/mL final concentration and co-incubated with cells at 4° C. for 1 hour. At the end of the incubation, cells were washed and incubated with secondary detection Streptavidin-PE antibody at a final 1:400 (1.25 μg/mL) dilution for 1 hr at 4° C.” left out

[7] = molecular target: T1, CD37 (Leukocyte Antigen CD37, …); test: FACS, THP-1 cells (AML); ratio to isotype control
From the text: as §2
as §1, with “Briefly, cells were harvested by and washed by centrifugation. Antibodies were diluted to 5 μg/mL final concentration and co-incubated with cells at 4° C. for 1 hour. At the end of the incubation, cells were washed and incubated with secondary detection Streptavidin-PE antibody at a final 1:400 (1.25 μg/mL) dilution for 1 hr at 4° C.” left out

[8] = molecular target: T1, CD37 (Leukocyte Antigen CD37, …); test: FACS, MOLT-4 cells (ALL); ratio to isotype control
Method: as §1

[9] = molecular target: T1, CD37 (Leukocyte Antigen CD37, …); test: FACS, RS4-11 cells (ALL); ratio to isotype control
From the text: as §2
as §1, with “Briefly, cells were harvested by and washed by centrifugation. Antibodies were diluted to 5 μg/mL final concentration and co-incubated with cells at 4° C. for 1 hour. At the end of the incubation, cells were washed and incubated with secondary detection Streptavidin-PE antibody at a final 1:400 (1.25 μg/mL) dilution for 1 hr at 4° C.” left out

[10] = molecular target: T1, CD37 (Leukocyte Antigen CD37, …); test: FACS, MOLM-13 cells (AML); ratio to isotype control
Method: as §1

[11] = molecular target: T1, CD37 (Leukocyte Antigen CD37, …); test: FACS, MV-4-11 cells (AML); ratio to isotype control
Method: as §1

[12] = molecular target: T1, CD37 (Leukocyte Antigen CD37, …); test: FACS, Kasumi-1 cells (AML); ratio to isotype control
From the text: as §2
as §1, with “Briefly, cells were harvested by and washed by centrifugation. Antibodies were diluted to 5 μg/mL final concentration and co-incubated with cells at 4° C. for 1 hour. At the end of the incubation, cells were washed and incubated with secondary detection Streptavidin-PE antibody at a final 1:400 (1.25 μg/mL) dilution for 1 hr at 4° C.” left out

[13] = molecular target: T1, CD37 (Leukocyte Antigen CD37, …); test: FACS, Raji cells (Burkitt's); ratio to isotype control
Method: as §1

[14] = molecular target: T1, CD37 (Leukocyte Antigen CD37, …); test: FACS, SU-DHL-4 cells (DLBCL); ratio to isotype control
Method: as §1

[15] = molecular target: T1, CD37 (Leukocyte Antigen CD37, …); test: FACS, Daudi cells (Burkitt's); ratio to isotype control
From the text: as §2
as §1, with “Briefly, cells were harvested by and washed by centrifugation. Antibodies were diluted to 5 μg/mL final concentration and co-incubated with cells at 4° C. for 1 hour. At the end of the incubation, cells were washed and incubated with secondary detection Streptavidin-PE antibody at a final 1:400 (1.25 μg/mL) dilution for 1 hr at 4° C.” left out

[16] = molecular target: T1, CD37 (Leukocyte Antigen CD37, …); test: FACS, Ramos cells (Burkitt's); ratio to isotype control
From the text: as §2
as §1, with “Briefly, cells were harvested by and washed by centrifugation. Antibodies were diluted to 5 μg/mL final concentration and co-incubated with cells at 4° C. for 1 hour. At the end of the incubation, cells were washed and incubated with secondary detection Streptavidin-PE antibody at a final 1:400 (1.25 μg/mL) dilution for 1 hr at 4° C.” left out

[17] = molecular target: T1, CD37 (Leukocyte Antigen CD37, …); test: FACS, WSU-DLCL-2 cells (DLBCL); ratio to isotype control
From the text: as §2
as §1, with “Briefly, cells were harvested by and washed by centrifugation. Antibodies were diluted to 5 μg/mL final concentration and co-incubated with cells at 4° C. for 1 hour. At the end of the incubation, cells were washed and incubated with secondary detection Streptavidin-PE antibody at a final 1:400 (1.25 μg/mL) dilution for 1 hr at 4° C.” left out

[18] = molecular target: T1, CD37 (Leukocyte Antigen CD37, …); test: FACS, DOHH-2 cells (Follicular); ratio to isotype control
From the text: as §2
as §1, with “Briefly, cells were harvested by and washed by centrifugation. Antibodies were diluted to 5 μg/mL final concentration and co-incubated with cells at 4° C. for 1 hour. At the end of the incubation, cells were washed and incubated with secondary detection Streptavidin-PE antibody at a final 1:400 (1.25 μg/mL) dilution for 1 hr at 4° C.” left out

[19] = molecular target: T1, CD37 (Leukocyte Antigen CD37, …); test: FACS, Mino XCL cells (MCL, in-vivo xenograft); ratio to isotype control
[20] = molecular target: T1, CD37 (Leukocyte Antigen CD37, …); test: FACS, KG-1 cells (AML); ratio to secondary detection (high isotype background)
From the text: as §2
as §1, with “At the end of the incubation, cells were washed and incubated with secondary detection Streptavidin-PE antibody at a final 1:400 (1.25 μg/mL) dilution for 1 hr at 4° C.” left out, “Fluorescense ratio was calculated as follows: Geo mean AGS67C/Geo Mean Isotype control=MFR, a measure of fold expression above Isotype control.” left out

[21] = molecular target: T1, CD37 (Leukocyte Antigen CD37, …); test: FACS, Ramos RR XCL cells (Burkitt's, rituxan resistant); ratio to isotype control
Method: as §1

[22] = molecular target: T1, CD37 (Leukocyte Antigen CD37, …); test: FACS, Hel 92.1 cells (AML); ratio to secondary detection (high isotype background)
Method: as §1, with “Fluorescense ratio was calculated as follows: Geo mean AGS67C/Geo Mean Isotype control=MFR, a measure of fold expression above Isotype control.” left out

[23] = molecular target: T1, CD37 (Leukocyte Antigen CD37, …); test: FACS, Granta-519 cells (MCL); ratio to secondary detection (high isotype background)
From the text: as §2
as §1, with “At the end of the incubation, cells were washed and incubated with secondary detection Streptavidin-PE antibody at a final 1:400 (1.25 μg/mL) dilution for 1 hr at 4° C.” left out, “Fluorescense ratio was calculated as follows: Geo mean AGS67C/Geo Mean Isotype control=MFR, a measure of fold expression above Isotype control.” left out

[24] = molecular target: T1, CD37 (Leukocyte Antigen CD37, …); test: FACS on cells expressing CD37

B1: HvCD37-6b15.1.1 MAb (recombinant, expressed in CHO cells, human IgG2 / kappa) (antibody, V domains shown)
VH: QVQLQQWGAGLLKPSETLSLTCAVYGGSFSPYYWSWIRQPPGKGLEWIGEINHSGSTNYNPSLKSRVTISVDTSKNQFSLKLSSVTAADTAVYYCARRAGDFDYWGQGTLVTVSS
VL: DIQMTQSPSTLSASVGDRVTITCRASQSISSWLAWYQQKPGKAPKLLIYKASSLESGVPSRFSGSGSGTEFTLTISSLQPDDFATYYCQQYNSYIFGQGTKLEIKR
modifications: typical heavy chain of purified CHO material: N-terminal glutamine modified to pyroglutamate and C-terminal lysine deleted; biotinylated with NHS LC biotin for the FACS assays
notes: Fully human antibody: human variable regions on human IgG2 and human kappa constant regions, made in CHO cells (ATCC PTA-120464); also called HvCD37-6b15.1.1 IgG2; AGS67C
Question: What does the source list for B1?
Answer: MFR (Mean Florescence ratio) [1]: 64; MFR (Mean Florescence ratio) [2]: 301; MFR (Mean Florescence ratio) [3]: 3; MFR (Mean Florescence ratio) [4]: 5; MFR (Mean Florescence ratio) [5]: 122; MFR (Mean Florescence ratio) [6]: 341; MFR (Mean Florescence ratio) [7]: 23; MFR (Mean Florescence ratio) [8]: 3; MFR (Mean Florescence ratio) [9]: 26; MFR (Mean Florescence ratio) [10]: 6; MFR (Mean Florescence ratio) [11]: 8; MFR (Mean Florescence ratio) [12]: 9; MFR (Mean Florescence ratio) [13]: 135; MFR (Mean Florescence ratio) [14]: 662; MFR (Mean Florescence ratio) [15]: 39; MFR (Mean Florescence ratio) [16]: 534; MFR (Mean Florescence ratio) [17]: 554; MFR (Mean Florescence ratio) [18]: 581; MFR (Mean Florescence ratio) [19]: 316; MFR (Mean Florescence ratio) [20]: 10; MFR (Mean Florescence ratio) [21]: 140; MFR (Mean Florescence ratio) [22]: 28; MFR (Mean Florescence ratio) [23]: 372

B2: HvCD37-6b15.1.1 MAb purified from hybridoma (VelocImmune mouse) (antibody, V domains shown)
VH: B1 VH
VL: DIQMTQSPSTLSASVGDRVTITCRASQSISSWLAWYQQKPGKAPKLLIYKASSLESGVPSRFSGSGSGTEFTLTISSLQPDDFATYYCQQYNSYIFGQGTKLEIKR
notes: also called HvCD37-6b15.1.1 purified from hybridoma; MAb material derived from hybridoma cells
Question: Does B2 bind [24]?
Answer: binds
